We go through 6 molecules from PMC4518712, “Regulation of the PI3K pathway through a p85α monomer–homodimer equilibrium” (eLife, 2015).

Data set [1] concerns the target p85α SH3-PR1-BH-PR2 fragment (residues 1–333) (UniProt P27986). As to the kind of experiment: MST; Alexa647-labelled protein at 20 nM, the same protein unlabelled titrated from 50,000 nM in 1:1 dilutions; 20 mM sodium phosphate pH 8, 150 mM NaCl, 2 mM EDTA, 5 mM DTT; dimerization.
For data set [2] the target is unchanged. As to the kind of experiment: AUC; sedimentation equilibrium, 20°C, samples at 1.0, 0.5 and 0.25 mg/ml, 11.8, 12.8, 13.8 krpm; global fit to a monomer–dimer–tetramer model (p85α, 1–333) or a monomer–dimer model (PR1-BH); constant of dimerization (dimer to monomers); reducing conditions.
Data set [3] addresses class I PXXP peptide. The conditions noted are these: cited from earlier work.
For data set [4], the target named is Fyn SH3 (Homo sapiens) (UniProt P06241). The note with it: cited from earlier work.
Fyn SH3 (Homo sapiens), sequence (P06241 79-146): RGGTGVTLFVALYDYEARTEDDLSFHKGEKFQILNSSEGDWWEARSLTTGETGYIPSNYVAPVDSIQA
Data set [5] addresses GST-ΔSH3 p85α (residues 86–742, comprising PR1 to cSH2). The experiment in a line: ITC; MicroCal ITC200, 25°C, 10 mM sodium phosphate pH 7.5, 150 mM NaCl, 5 mM DTT; PR1 peptide injected into p85α SH3 (100 μM) in the cell, or SH3 (400 μM) in the syringe and GST-ΔSH3 p85α in the cell.
Data set [6] concerns the molecule itself. The experiment in a line: MST; Alexa647-labelled protein at 20 nM, the same protein unlabelled titrated from 50,000 nM in 1:1 dilutions; 20 mM sodium phosphate pH 8, 150 mM NaCl, 2 mM EDTA, 5 mM DTT; dimerization.
Data set [7] deals with the molecule itself. The experiment in a line: AUC; sedimentation equilibrium, 20°C, samples at 1.0, 0.5 and 0.25 mg/ml, 11.8, 12.8, 13.8 krpm; global fit to a monomer–dimer–tetramer model (p85α, 1–333) or a monomer–dimer model (PR1-BH); constant of dimerization (dimer to monomers); reducing conditions.
Data set [8] has as its target T1, p85α SH3 (residues 1–81) (UniProt P27986 1-81).
T1 construct: p85α residues 1–81; pET28b
The experiment in a line: ITC; MicroCal ITC200, 25°C, 10 mM sodium phosphate pH 7.5, 150 mM NaCl, 5 mM DTT; PR1 peptide injected into p85α SH3 (100 μM) in the cell, or SH3 (400 μM) in the syringe and GST-ΔSH3 p85α in the cell. The conditions noted are these: both partners purified. On the technique in general: ITC needs no label: the signal is the heat of the interaction.

“And” between values parts separate entries of the source, which are not always exact repeats. Identical values can stand only once.

T1 sequence (P27986 1-81): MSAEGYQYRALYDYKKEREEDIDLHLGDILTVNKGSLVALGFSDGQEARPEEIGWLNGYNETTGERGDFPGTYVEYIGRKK

Regarding “p85α SH3-PR1-BH-PR2 fragment (residues 1–333) (from UniProt P27986 1-333) (domain or fragment)”, the Kd amounted to 0.441 µM in data set [1] and 0.53 µM in data set [2].
Consider p85α SH3 SH3 (from UniProt P27986), for which the dissociation constant Kd in data set [3] was 40 µM.
Take p85α PR1 PR1 (from UniProt P27986): the Kd in data set [4] was 16 µM.
In data set [5], “p85α SH3 (residues 1–81) (from UniProt P27986 1-81) (domain or fragment)” yielded a Kd of 16.8 µM, a dH of -3.2 kcal/mol and a stoichiometry N of 0.8.

B1: p85α PR1-BH (residues 79–301) (domain or fragment, UniProt P27986 79-301, looked up)
chain: RKKISPPTPKPRPPRPLPVAPGSSKTEADVEQQALTLPDLAEQFAPPDIAPPLLIKLVEAIEKKGLECSTLYRTQSSSNLAELRQLLDCDTPSVDLEMIDVHVLADAFKRYLLDLPNPVIPAAVYSEMISLAPEVQSSEEYIQLLKKLIRSPSIPHQYWLTLQYLLKHFFKLSQTSSKNLLNARVLSEIFSPMLFRFSAASSDNTENLIKVIEILISTEWNER
modifications: Alexa647 label on the labelled copy (MST only)
notes: p85α residues 79–301; pET28b
Take B1: the equilibrium dissociation constant (Kd) was 22.3 µM and 23 µM in data set [6]; 163 µM in data set [7].

B2: synthetic p85α PR1 peptide PKPRPPRPLPVAP (peptide)
peptide: PKPRPPRPLPVAP
notes: p85α PR1 region, begins at P87; source: synthetic peptide
On to B2, for which, in data set [8], the Kd is 23.3 µM and 24 µM; the dH was -1.17 kcal/mol; the “stoichiometry N” value amounted to 1.06.

The term Kd denotes the constant that tells how readily two partners part at equilibrium. By stoichiometry N is commonly meant the number of molecules, sites or subunits per partner or assembly.
